Results on two molecules are retold here after paper PMC4634933, “Development of a Novel PET Tracer [^18F]AlF-NOTA-C6 Targeting MMP2 for Tumor Imaging” (PLoS ONE, 2015).

The format of data set [1] is physicochemical. The procedure: To examine in vitro stability, approximately 400 μL of [^18F]AlF-NOTA-C6 and 2 mL of physiological saline at room temperature, or 2 mL of human serum at 37°C, were mixed and incubated for 4 h. During the incubation, 200-μL samples were collected at 2 and 4 h. The samples were subsequently analyzed by radio-HPLC.
In data set [2] the test system is PC3 tumors. In words: MicroPET imaging of PC3 tumor-bearing mice. The data set is classed as in vivo. To be noted: 3.7 MBq via tail vein, greatest radioactivity concentration at 30 min PI.
The test system of data set [3] is SKOV3 tumors. Briefly: MicroPET imaging of SKOV3 tumor-bearing mice. The format is in vivo. To be noted: 3.7 MBq via tail vein, non-blocked. The protocol:
Tumor-bearing mice were prepared via a subcutaneous injection of cancer cells into the forelegs of female (SKOV3) or male (PC3) BALB/c nude mice (B&K Universal, Shanghai, China) at 6 weeks of age (body weight 18–20 g). When tumors were palpable, i.e., approximately 5 mm in diameter, the mice were used for biodistribution and PET imaging experiments. PET imaging was performed on 4 mice bearing SKOV3 tumors using a microPET scanner; prior to the tracer injection, 2 mice were pre-blocked with unlabeled C6 at 10 mg/kg body weight, and 2 mice were not pre-blocked. Pre-blocked and non-blocked mice were then administered 3.7 MBq of [^18F]AlF-NOTA-C6, via tail vein injection. At 30, 60, and 120 min post-injection (PI), the mice were anesthetized with 1–2% isoflurane, positioned supine, immobilized, and imaged. The scan time was 10 min. The images were reconstructed using the ordered subset expectation maximization method; no attenuation correction was used.

The test system of data set [4] is SKOV3 tumor-bearing mice. Briefly: in vivo. The procedure:
(§1) Tumor-bearing mice were prepared via a subcutaneous injection of cancer cells into the forelegs of female (SKOV3) or male (PC3) BALB/c nude mice (B&K Universal, Shanghai, China) at 6 weeks of age (body weight 18–20 g). When tumors were palpable, i.e., approximately 5 mm in diameter, the mice were used for biodistribution and PET imaging experiments. Biodistribution experiments were performed via intravenous administration of [^18F]AlF-NOTA-C6 (0.74 MBq) to mice bearing SKOV3 tumors. At 30, 60, and 120 min PI (n = 4 mice/timepoint), the mice were euthanized and the biological samples of interest (e.g., blood, tumor, muscle, lung, spleen, kidney, liver, and small intestine) were harvested and weighed. In the blocking experiments, the mice (n = 4) were pre-blocked with unlabeled C6 at 10 mg/kg body weight prior to the tracer injection; at 60 min PI of [^18F]AlF-NOTA-C6, the mice were euthanized as previously described. The radioactivity values of the tissues and injection standards were subsequently measured in a γ-counter. The samples were corrected for radioactive decay to calculate the percent of injected dose (ID) to grams of tissue (%ID/g) relative to a standard that represented the injected dose.

Data set [5] can be described thus: in vivo. Conditions: female, BALB/c nude, mouse, in vivo, iv, 0.74 MBq, total radioactivity. Set-up: species or system mice. The protocol: as §1
The test system of data set [6] is gelatinase. Set-up: method as in PMID 19424760. Conditions: cited from earlier work.

Bridge positions count the residues as written; N and C are the ends. Peptide text beside a SMILES is read from it. * marks the point of attachment. NOTA = O=C(O)CN1CCN(CC(=O)O)CCN(CC(=O)*)CC1

With `CC(C)C[C@@H]1NC(=O)[C@H]([C@@H](C)O)NC(=O)[C@H](Cc2ccccc2)NC(=O)CNC(=O)[C@H](Cc2c[nH]c3ccccc23)NC(=O)[C@H](Cc2c[nH]cn2)NC(=O)[C@H](C)NC(=O)[C@@H](NC(=O)CN2CCN(CC(=O)O)CCN(CC(=O)O)CC2)CCCCNC(=O)C[C@@H](C(N)=O)NC1=O` [[^18F]AlF-NOTA-C6] ({NOTA}-KAHWGFTLD-NH2; lactam 1-9), the radioactive degradation products entry in data set [1] is “absence”. In addition, the “radioactivity in the form of [18F]AlF-NOTA-C6” value in data set [1] (physiological saline, room temperature, 4 h incubation, radio-HPLC) was more than 95%. The “tumor detection via PET” value in data set [2] is “detected”. Moreover, the “tumor radioactivity concentration in PET” value in data set [3] (30 and 60 min PI) is given as “visualized”. In addition, the “uptake of the tumors in PET” value in data set [3] (120 min PI) is on record as “negligible”. Further, the “change of tumor tissue uptake after pre-injection of excess C6” value in data set [4] (SKOV3 tumor-bearing mice, C6 10 mg/kg pre-block versus non-blocked, 60 min PI, P < 0.05) is on record as “marked reduction”. For the same molecule, the “uptake ratio of tumor-to-blood” value in data set [4] (mouse, in vivo) is more than 2 fold. For the same molecule, the tissue uptake at 0.5 h in data set [5] (Fat uptake) was 0.44 ± 0.08 %ID/g; in data set [5] (Gut uptake), 0.47 ± 0.09 %ID/g; in data set [5] (Kidney uptake) it was 7.14 ± 0.05 %ID/g; in data set [5] (Muscle uptake), 0.57 ± 0.15 %ID/g; in data set [5] (Pancreas uptake), 0.35 ± 0.01 %ID/g; in data set [5] (Sexual gland uptake), 0.5 ± 0.12 %ID/g. In addition, the tissue uptake at 0.5 h in data set [5] (Stomach uptake) was 0.49 ± 0.31 %ID/g; in data set [5] (Thyroid uptake) it was 0.88 ± 0.13 %ID/g; in data set [5] (Tumor uptake), 1.2 ± 0.24 %ID/g. Besides, the tissue uptake at 1 h stood at 0.18 ± 0.1 %ID/g in data set [5] (Fat uptake); 0.13 ± 0.07 %ID/g in data set [5] (Gut uptake); 4.55 ± 1.38 %ID/g in data set [5] (Kidney uptake); 0.08 ± 0.04 %ID/g in data set [5] (Muscle uptake); 0.16 ± 0.14 %ID/g in data set [5] (Pancreas uptake); 0.05 ± 0.03 %ID/g in data set [5] (Sexual gland uptake). The values for the tissue uptake at 1 h in data set [5] (Stomach uptake), in data set [5] (Thyroid uptake) and in data set [5] (Tumor uptake) were 0.21 ± 0.19 %ID/g, 0.16 ± 0.07 %ID/g and 0.75 ± 0.25 %ID/g, respectively. Also, the tissue uptake at 2 h in data set [5] (Fat uptake) stood at 0.12 ± 0.07 %ID/g; in data set [5] (Gut uptake), 0.12 ± 0.07 %ID/g; in data set [5] (Kidney uptake), 4.72 ± 0.31 %ID/g; in data set [5] (Muscle uptake), 0.21 ± 0.08 %ID/g; in data set [5] (Pancreas uptake), 0.09 ± 0.06 %ID/g; in data set [5] (Sexual gland uptake), 0.09 ± 0.02 %ID/g. Besides, the tissue uptake at 2 h in data set [5] (Stomach uptake) came to 0.07 ± 0.02 %ID/g; in data set [5] (Thyroid uptake), 0.3 ± 0.16 %ID/g; in data set [5] (Tumor uptake), 0.27 ± 0.14 %ID/g.
Turning to “c(Lys-Ala-His-Trp-Gly-Phe-Thr-Leu-Asp)NH2 (sidechain bridge or staple) [C6]”, the “increase in gelatinase inhibition relative to CTT” value in data set [6] is recorded as 4 fold.
